Values quoted from earlier work, collected in paper PMC2866048.

Biological target: F-actin (Oryctolagus cuniculus) (UniProt P68135)

Question: For drebrin (from UniProt Q16643), which Kd is on record?
Answer: 120 nM
